What was measured:
Fer (mouse) = assay: phosphorylation enrichment, bacterial display (enrichment ratio); higher = better substrate or ligand; peptides without Tyr show the background
Fyn = Fyn (UniProt P06241); assay: as above
EPHB2 = EPHB2 (UniProt P29323); assay: as above
AncSZ = assay: as above
MERTK = MERTK (UniProt Q12866); assay: as above
EPHB1 = EPHB1 (UniProt P54762); assay: as above
FGFR3 = FGFR3 (UniProt P22607); assay: as above
Hck = Hck (UniProt P08631); assay: as above
Jak2 = Jak2 (UniProt O60674); assay: as above
Fes = Fes (UniProt P07332); assay: as above
c-Src = assay: as above
FGFR1 = FGFR1 (UniProt P11362); assay: as above
c-Abl (mouse) = assay: as above
SHP2-C SH2 = assay: SH2 binding enrichment of the phosphorylated peptide, bacterial display (enrichment ratio); higher = better substrate or ligand; peptides without Tyr show the background
Grb2 SH2 = Grb2 SH2 (UniProt P62993); assay: as above
c-Src SH2 = assay: as above
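Throughout, for SH2 binding enrichment of the phosphorylated peptide, bacterial display: peptide library displayed on the E. coli surface as eCPX fusions, selected cells deep-sequenced, score is each peptide's frequency after selection divided by its frequency in the input.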
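Throughout, for phosphorylation enrichment, bacterial display: 11-residue human phosphosite peptides and single-mutation variants displayed on the E. coli surface, counted by deep sequencing, each peptide's frequency after selection divided by its frequency in the unselected input library; frequency after pTyr selection over input frequency; kinase dosed for 20-30% of maximal phosphorylation in three min.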

Chain of EPHB2 (P29323 whole entry, looked up): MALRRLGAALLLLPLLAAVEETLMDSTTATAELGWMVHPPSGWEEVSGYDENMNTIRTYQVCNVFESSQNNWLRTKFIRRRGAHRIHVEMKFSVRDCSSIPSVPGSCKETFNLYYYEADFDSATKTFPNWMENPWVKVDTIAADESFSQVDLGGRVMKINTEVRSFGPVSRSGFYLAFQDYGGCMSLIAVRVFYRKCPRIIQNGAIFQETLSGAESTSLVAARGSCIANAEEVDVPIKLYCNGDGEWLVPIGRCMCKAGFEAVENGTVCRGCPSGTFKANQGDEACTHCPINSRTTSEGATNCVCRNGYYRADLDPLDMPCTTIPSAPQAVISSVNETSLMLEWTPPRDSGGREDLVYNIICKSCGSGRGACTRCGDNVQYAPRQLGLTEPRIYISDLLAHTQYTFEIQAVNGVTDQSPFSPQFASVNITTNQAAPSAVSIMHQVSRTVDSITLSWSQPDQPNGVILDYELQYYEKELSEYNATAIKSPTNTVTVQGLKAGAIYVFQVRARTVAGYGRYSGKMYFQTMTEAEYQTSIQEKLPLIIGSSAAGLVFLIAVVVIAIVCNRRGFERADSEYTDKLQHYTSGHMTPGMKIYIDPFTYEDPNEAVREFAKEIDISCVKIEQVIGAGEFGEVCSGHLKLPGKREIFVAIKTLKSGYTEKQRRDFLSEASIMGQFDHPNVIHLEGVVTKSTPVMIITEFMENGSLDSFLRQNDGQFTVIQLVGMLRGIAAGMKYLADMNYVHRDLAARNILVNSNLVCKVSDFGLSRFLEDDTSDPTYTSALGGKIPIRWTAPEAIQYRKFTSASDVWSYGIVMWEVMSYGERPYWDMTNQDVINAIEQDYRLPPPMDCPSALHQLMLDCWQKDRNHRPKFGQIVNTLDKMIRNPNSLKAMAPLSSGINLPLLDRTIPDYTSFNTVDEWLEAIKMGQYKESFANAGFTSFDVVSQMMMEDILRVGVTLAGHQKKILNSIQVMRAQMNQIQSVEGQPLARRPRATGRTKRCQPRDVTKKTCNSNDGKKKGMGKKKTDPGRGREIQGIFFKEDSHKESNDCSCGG
Chain of Fyn (P06241 whole entry, looked up): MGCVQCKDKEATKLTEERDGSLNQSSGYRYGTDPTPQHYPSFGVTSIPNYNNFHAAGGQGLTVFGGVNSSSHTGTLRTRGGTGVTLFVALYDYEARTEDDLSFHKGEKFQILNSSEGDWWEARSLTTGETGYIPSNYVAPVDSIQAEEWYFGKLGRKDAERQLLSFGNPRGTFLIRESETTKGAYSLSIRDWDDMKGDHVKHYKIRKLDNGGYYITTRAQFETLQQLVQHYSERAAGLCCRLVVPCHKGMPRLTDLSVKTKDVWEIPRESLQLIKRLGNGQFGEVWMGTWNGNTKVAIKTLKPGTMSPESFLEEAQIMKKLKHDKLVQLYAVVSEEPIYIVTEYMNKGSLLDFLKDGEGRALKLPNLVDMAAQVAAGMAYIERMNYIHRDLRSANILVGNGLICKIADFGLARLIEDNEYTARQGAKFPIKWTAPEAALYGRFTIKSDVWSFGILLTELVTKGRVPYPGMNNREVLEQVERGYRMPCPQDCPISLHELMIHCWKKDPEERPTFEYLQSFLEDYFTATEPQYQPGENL
Chain of Jak2 (O60674 whole entry, looked up): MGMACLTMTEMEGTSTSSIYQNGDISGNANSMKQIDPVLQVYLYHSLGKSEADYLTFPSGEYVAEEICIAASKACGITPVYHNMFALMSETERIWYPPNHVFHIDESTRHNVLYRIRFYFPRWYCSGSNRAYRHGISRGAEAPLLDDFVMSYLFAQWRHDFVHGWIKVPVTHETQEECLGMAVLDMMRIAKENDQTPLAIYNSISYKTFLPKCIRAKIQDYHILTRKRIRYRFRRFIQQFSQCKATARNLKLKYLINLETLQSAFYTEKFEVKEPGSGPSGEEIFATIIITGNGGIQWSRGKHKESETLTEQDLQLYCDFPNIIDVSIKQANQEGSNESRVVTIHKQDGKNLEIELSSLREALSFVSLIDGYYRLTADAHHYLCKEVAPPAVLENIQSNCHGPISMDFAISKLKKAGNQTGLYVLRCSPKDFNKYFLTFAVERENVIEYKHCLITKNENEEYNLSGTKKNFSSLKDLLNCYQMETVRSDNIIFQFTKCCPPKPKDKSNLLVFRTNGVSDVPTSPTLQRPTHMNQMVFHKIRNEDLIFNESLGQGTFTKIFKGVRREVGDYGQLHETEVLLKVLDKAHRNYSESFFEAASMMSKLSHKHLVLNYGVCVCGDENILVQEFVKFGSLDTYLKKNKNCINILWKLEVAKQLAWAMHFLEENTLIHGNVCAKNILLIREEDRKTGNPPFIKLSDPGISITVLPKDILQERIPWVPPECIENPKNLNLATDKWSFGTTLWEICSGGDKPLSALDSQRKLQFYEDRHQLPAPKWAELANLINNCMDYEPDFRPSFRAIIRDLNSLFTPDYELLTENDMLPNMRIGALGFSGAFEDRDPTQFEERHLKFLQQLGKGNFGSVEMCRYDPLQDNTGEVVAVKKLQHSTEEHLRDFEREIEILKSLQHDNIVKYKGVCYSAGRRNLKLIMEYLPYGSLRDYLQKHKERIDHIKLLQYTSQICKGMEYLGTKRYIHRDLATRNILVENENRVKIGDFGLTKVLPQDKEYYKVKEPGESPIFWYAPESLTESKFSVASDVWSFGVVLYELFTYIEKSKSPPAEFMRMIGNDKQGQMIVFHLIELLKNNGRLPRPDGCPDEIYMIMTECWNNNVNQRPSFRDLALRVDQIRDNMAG
Chain of FGFR3 (P22607 whole entry, looked up): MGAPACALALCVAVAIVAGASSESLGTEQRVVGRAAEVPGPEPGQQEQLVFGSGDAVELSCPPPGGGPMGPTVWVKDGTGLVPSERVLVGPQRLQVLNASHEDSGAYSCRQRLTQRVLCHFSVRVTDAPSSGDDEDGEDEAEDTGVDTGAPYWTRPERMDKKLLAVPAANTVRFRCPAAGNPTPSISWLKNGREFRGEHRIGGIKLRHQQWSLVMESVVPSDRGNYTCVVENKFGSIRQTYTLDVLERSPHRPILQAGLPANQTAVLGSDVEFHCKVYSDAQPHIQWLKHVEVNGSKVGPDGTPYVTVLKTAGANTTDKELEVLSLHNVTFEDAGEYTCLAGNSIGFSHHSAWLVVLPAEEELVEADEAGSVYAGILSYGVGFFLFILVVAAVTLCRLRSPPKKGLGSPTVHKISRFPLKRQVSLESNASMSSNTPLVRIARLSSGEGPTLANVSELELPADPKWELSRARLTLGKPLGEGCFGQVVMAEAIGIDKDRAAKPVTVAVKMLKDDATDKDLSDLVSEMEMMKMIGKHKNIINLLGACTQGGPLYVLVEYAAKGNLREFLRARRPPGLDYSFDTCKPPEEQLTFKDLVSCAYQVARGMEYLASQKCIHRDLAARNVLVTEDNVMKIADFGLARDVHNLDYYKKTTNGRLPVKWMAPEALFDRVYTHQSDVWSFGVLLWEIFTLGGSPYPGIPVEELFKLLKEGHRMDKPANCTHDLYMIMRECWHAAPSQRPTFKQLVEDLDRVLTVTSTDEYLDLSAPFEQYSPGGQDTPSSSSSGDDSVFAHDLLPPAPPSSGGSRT
Chain of EPHB1 (P54762 whole entry, looked up): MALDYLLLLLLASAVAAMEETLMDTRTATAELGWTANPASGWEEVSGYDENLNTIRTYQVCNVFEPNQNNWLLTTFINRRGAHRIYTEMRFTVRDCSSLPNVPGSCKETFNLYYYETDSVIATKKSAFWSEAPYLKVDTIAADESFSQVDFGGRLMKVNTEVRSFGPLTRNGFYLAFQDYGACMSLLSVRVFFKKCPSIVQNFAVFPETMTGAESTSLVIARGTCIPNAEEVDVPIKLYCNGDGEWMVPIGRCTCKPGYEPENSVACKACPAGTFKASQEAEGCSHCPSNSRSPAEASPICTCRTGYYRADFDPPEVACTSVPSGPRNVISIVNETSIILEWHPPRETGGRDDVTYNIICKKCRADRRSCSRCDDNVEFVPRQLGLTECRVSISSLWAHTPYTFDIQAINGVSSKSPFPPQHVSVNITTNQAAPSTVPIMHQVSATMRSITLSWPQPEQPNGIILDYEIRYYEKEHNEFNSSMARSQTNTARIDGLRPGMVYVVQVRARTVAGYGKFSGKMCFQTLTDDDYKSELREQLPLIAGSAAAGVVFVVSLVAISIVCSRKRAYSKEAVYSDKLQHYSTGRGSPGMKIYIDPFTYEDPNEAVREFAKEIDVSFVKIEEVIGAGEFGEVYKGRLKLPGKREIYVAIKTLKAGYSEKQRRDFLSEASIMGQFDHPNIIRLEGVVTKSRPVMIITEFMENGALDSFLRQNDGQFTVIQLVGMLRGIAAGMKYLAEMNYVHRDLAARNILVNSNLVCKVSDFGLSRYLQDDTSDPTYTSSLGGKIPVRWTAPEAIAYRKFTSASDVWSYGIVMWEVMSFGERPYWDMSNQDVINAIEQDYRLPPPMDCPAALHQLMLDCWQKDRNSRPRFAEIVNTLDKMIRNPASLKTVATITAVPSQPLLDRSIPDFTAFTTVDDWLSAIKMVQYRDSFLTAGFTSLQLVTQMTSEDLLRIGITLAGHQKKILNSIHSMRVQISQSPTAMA
Chain of Hck (P08631 whole entry, looked up): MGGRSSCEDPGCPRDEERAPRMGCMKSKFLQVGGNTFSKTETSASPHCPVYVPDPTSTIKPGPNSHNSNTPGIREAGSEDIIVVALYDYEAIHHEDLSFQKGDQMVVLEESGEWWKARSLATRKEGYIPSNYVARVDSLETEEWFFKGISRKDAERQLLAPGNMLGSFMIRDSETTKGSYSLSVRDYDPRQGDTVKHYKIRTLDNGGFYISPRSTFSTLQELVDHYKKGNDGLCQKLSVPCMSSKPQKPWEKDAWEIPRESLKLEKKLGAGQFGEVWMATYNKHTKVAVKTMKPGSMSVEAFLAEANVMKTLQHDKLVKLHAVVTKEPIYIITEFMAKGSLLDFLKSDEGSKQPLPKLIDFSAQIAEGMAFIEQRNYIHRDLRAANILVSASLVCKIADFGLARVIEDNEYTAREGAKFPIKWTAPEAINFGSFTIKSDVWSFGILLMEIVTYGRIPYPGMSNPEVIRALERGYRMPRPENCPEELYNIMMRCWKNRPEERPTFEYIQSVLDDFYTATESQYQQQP

Sequence	phosphorylation enrichment (Fer (mouse))	phosphorylation enrichment (Fyn)	phosphorylation enrichment (EPHB2)	phosphorylation enrichment (AncSZ)	phosphorylation enrichment (MERTK)	phosphorylation enrichment (EPHB1)	phosphorylation enrichment (FGFR3)	phosphorylation enrichment (Hck)	phosphorylation enrichment (Jak2)	phosphorylation enrichment (Fes)	phosphorylation enrichment (c-Src)	phosphorylation enrichment (FGFR1)	phosphorylation enrichment (c-Abl (mouse))	SH2 binding enrichment (SHP2-C SH2)	SH2 binding enrichment (Grb2 SH2)	SH2 binding enrichment (c-Src SH2)
GYKVRYATWSI [FGFR1_Y210]	0.456	0.54	0.425	1.06	0.657	0.573	0.669	0.593	1.08	1.18	0.582	0.519	0.969	2.01	1.39	1.28
PLFRVYGLESL [INSR_Y94_L89P]	0.571	1.03	0.673	1.2	0.508	0.803	0.686	0.574	1.43	1.43	0.864	0.58	1.15	0.663	0.851	0.345
IVFTSYVLTIL [TAS2R16_Y239_F240V]	0.731	0.667	0.794	1.41	0.526	0.884	1.17	0.623	1.55	1.73	0.55	0.71	1.05	0.641	1.04	0.806
KWLEQYTQAIE [LSP1_Y234_Q229K]	0.442	0.454	0.683	1.04	0.39	0.499	0.573	0.441	0.915	0.977	0.452	0.472	0.702	0.806	0.993	0.782
ISSLCYELLEE [TRPC6_Y896_R895C]	0.924	0.597	0.654	2.07	0.777	0.986	1.23	0.747	1.36	1.66	0.928	0.748	1.13	0.769	0.843	0.701
RYVSRYIYNRE [HLA-DQB1_Y62_T60S]	0.844	0.829	0.95	1.29	0.993	0.922	0.739	0.551	0.92	1.11	1.08	0.658	0.666	0.245	0.659	0.368
RSRSSYTHSLN [MYCT1_Y116_G119S]	0.381	0.63	0.537	0.832	0.762	0.504	0.514	0.495	0.948	0.755	0.938	0.575	0.97	0.348	0.786	0.435
CQAHGYSCQLI [STK11_Y156_F157S]	0.506	0.648	0.508	0.77	0.47	0.568	0.531	0.5	0.556	0.925	0.435	0.529	0.492	0.847	0.854	0.768
QAPPVYLDVLG [NTRK1_Y791]	0.69	1.01	1.34	1.17	0.901	4.2	1.49	1.02	1.16	1.45	0.727	2.33	0.954	0.765	1.03	0.723
RPSRWYQFPVA [ANOS1_Y259_R262P]	0.692	0.496	0.433	2.95	7.23	0.403	1.38	0.5	0.914	0.889	0.648	2.41	0.657	2.07	1.79	1.71
TFTVSYLPDMS [FLNC_Y1602_YF]	0.436	0.495	0.599	1.08	0.442	0.631	0.735	0.48	0.975	1.28	0.478	0.607	0.835	0.799	0.792	0.594
SWKRRYFLLRA [APBB1IP_Y331]	0.565	0.564	0.58	0.727	0.759	0.595	0.655	0.943	0.609	0.631	0.713	0.614	0.637	0.689	0.639	0.394
QAKRKYQEASK [FES_Y156]	0.481	0.544	0.459	0.46	0.418	0.342	0.441	0.489	0.429	0.772	0.488	0.495	0.491	0.701	1.16	0.602
GDEAIYATVAG [NRTKtide_2018]	13.4	10.7	15.5	1.59	9.16	12.1	3	9.26	0.803	2.64	7.59	3.87	22.1	0.812	1.01	0.612
FGTAQYCCRMG [LRRK2_Y2023_I2020T_YF]	0.499	0.463	8.12	0.663	1.79	0.598	0.517	0.518	0.515	0.693	0.403	0.56	1.28	0.863	0.978	0.772
CENCHYPILPL [LCK_Y25_V28L]	0.423	0.391	0.422	0.678	0.357	0.43	0.632	0.746	0.718	0.903	0.436	0.541	0.607	1.29	1.13	0.912
ECKASCPGKIT [PRSS3_Y232_Y232C]	0.453	0.401	0.335	0.461	0.468	0.336	0.44	0.351	0.402	0.536	0.359	0.404	0.577	0.556	0.791	0.442
APNEFYDGDHD [HDAC3_Y414]	0.59	0.535	0.605	1.3	0.602	0.613	1.18	0.769	1.32	1.29	0.574	0.624	1.04	0.632	0.727	0.57
VNLVLHLSIAK [FBXO15_Y496_Y496H]	0.799	0.492	0.609	1.15	0.391	0.583	0.85	0.588	1.36	1.36	0.446	0.476	0.88	0.511	0.652	0.351
DEWFLYKMRDI [CPS1_Y879_K875E]	0.586	0.486	0.585	1.25	0.4	0.751	0.878	0.615	1.63	1.56	0.816	0.503	0.935	0.829	0.653	0.417
CGTPDYIAPEI [PRKCG_Y521]	0.484	0.53	0.755	1.99	0.444	0.715	1.26	0.568	0.882	1.14	0.433	1.23	0.632	0.699	0.853	0.589
TLRETYGEMAD [ALB_Y108]	0.446	0.627	0.559	0.999	0.454	0.54	0.836	0.555	0.982	1.2	0.702	0.519	0.885	0.579	1.11	0.91
VYYDLYGGEKF [PTPN11_Y66_D61V]	2.99	5.88	7.34	2.05	8.55	4.34	12.8	6.07	2.2	1.13	5.53	15	0.918	1.06	1.34	2.26
TTPGPYRSIYF [MPG_Y71]	0.54	0.641	0.278	0.595	0.422	0.268	0.515	0.662	0.433	1	1.27	0.44	0.547	6.08	1.48	2.11
RLGNQYVNVMN [SLC3A1_Y461]	0.513	0.471	0.59	0.619	0.352	2.21	0.991	0.446	0.64	0.727	0.508	0.541	0.524	2.03	15.4	2.79
ADQLDYIKALN [HPRT1_Y81_L78Q]	0.451	0.492	0.474	1.06	0.441	0.784	0.608	0.526	0.861	1.22	0.408	0.458	0.708	0.559	0.914	0.491
EDKFMYFEFPQ [PTEN_Y240]	0.421	1.32	0.67	1.7	1.68	0.826	7.33	1.11	2.05	1.27	2.53	9.1	0.952	0.681	0.745	0.543
DRKRQYELLKL [KIF4B_Y684]	0.421	0.392	0.462	0.682	0.4	0.44	0.576	0.488	0.876	0.758	0.395	0.331	0.545	1.04	1.17	1.49
CTTFHYNYMCN [TP53_Y234_I232F]	0.659	0.547	0.629	1.03	0.475	0.809	0.713	0.514	0.842	1.05	0.507	0.696	0.955	1.82	1.17	4.4

From the supplement of paper PMC10065799, “High-throughput profiling of sequence recognition by tyrosine kinases and SH2 domains using bacterial peptide display” (eLife, 2023)
